Data taken from patent US20230265201A1 (published 2023).

T1: rhesus recombinant CD70 (FLAG-TNC-rhesus CD70) (rhesus macaque (Macaca mulatta), UniProt F7GPA5 174-316)
T1 construct: also called rhesus Flag-TNC-CD70; Rhesus monkey; not shown: Flag tag and TNC trimerisation domain
T1 sequence: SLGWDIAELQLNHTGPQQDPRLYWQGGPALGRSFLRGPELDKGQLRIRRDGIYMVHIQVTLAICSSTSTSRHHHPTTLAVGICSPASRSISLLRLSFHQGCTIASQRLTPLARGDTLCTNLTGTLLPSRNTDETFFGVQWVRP


Experiments:
[1] = molecular target: T1, rhesus recombinant CD70 …; assay: Biacore off-rate, Fab over immobilised rhesus CD70
[2] = molecular target: cynomolgus monkey Flag-TNC-CD70 (cynomolgus monkey); assay: CD27-CD70 inhibition ELISA, cynomolgus Flag-TNC-CD70
[3] = molecular target: T1, rhesus recombinant CD70 …; assay: CD27-CD70 inhibition ELISA, rhesus Flag-TNC-CD70
Description: In this assay, a microtiter plate (Nunc Maxisorb) was first coated with 100 µl anti-FLAG M2 monoclonal antibody (Sigma Aldrich, F3165) at 1250-fold dilution in PBS (to achieve a final concentration of approximately 3.5 µg/ml) overnight at 4° C. The plate was washed once with PBS-Tween and incubated at RT for 2 hours with 300 µl PBS-1% casein. The plate was washed a further three times with PBS-Tween. 100 µl of 5 ng/ml (80 pM) Flag-TNC-CD70 (The Journal of Immunology, 2009, 183: 1851-1861) diluted in PBS-0.1% casein was added to the plate and incubated at RT for 1 hour while shaking. The plate was washed five times with PBS-Tween. The CD70 mAb to be tested was added to the plate; various concentrations were achieved by diluting the stock antibody solution in PBS-0.1% casein. Immediately thereafter, 50 µl of 1 µg/ml (final concentration 6.5 nM) recombinant human CD27 Fc chimera (R&D systems 382-CD, MW = 46.5 kDa) was added, and incubated at RT for 1 hour while shaking. The plate was washed five times with PBS Tween. 100 µl of biotinylated anti-CD27 (eBioscience 13-0271), diluted 500-fold in PBS-0.1% casein, was added, and the plate incubated at RT for a further hour, while shaking. The plate was washed five times with PBS Tween. […] 100 µl TMB was added to the plate and the OD at 620 nm was measured. […]

Binder | binding result [1] | IC50 [2] [µg/mL] | IC50 [3] [µg/mL]
59D10 Fab (Fab, V domains shown, Llama-derived Fab from phage display; MYC tag at C-terminus of Fd) VH: EVQLVESGGGLVQPGGSLRLSCAASELSFSISEMTWVRQAPGKGLEWVSGISGVTGGSSTSYADSVKGRFTISRDNDKNTLYLQMNSLIPEDTAVYYCATTSGTYYFIPEYEYWGQGTQVTVSS VL: QSVLTQPPSVSGSPGKTVTISCAGTSSDVGYGYYVSWYQQFPGMAPKLLIYDVNKRASGIADRFSGSKAGNTASLTISGLQSEDEADYYCASYRSSANAVFGGGTHLTVLG | no binding |  | 
ARGX-110 (non-fucosylated human IgG1 of germlined 27B3 clone 41D12) (antibody, V domains shown, also called ARGX-100; 41D12 (ARGX-110)) VH: EVQLVESGGGLVQPGGSLRLSCAASGFTFSVYYMNWVRQAPGKGLEWVSDINNEGGTTYYADSVKGRFTISRDNSKNSLYLQMNSLRAEDTAVYYCARDAGYSNHVPIFDSWGQGTLVTVSS VL: QAVVTQEPSLTVSPGGTVTLTCGLKSGSVTSDNFPTWYQQTPGQAPRLLIYNTNTRHSGVPDRFSGSILGNKAALTITGAQADDEAEYFCALFISNPSVEFGGGTQLTVLG |  | 0.048 | 0.075
